Kd data for one molecule are collected here from patent US20120207770A1 (NANYANG TECHNOLOGICAL UNIVERSITY, published 2012).

In experiment [1] the target is T1, human integrin β1 (enriched membrane protein extract of transfected HEK293T cells) (human, UniProt P05556 21-798, limits assumed).
T1 construct: Membrane extract enriched on a sucrose step gradient before SPR; also called integrins B1
The experiment in a line: SPR, integrin over immobilized ANGPTL4 on a GLC chip, global fit to Langmuir 1:1 model. The method, then:
Immunoprecipitates were probed with anti-Src for normalization. Activated Src, Na⁺/H⁻ exchanger 1 and catalase were assessed using cognate antibodies. Representative pictures from three experiments. (h) Intracellular ROS of A-5RT3CTRL and A-5RT3ANGPTL4 evaluated by 5-(and 6-)-chloromethyl-2′,7′-dichlorodihydro-fluorescein diacetate acetyl ester. Data are normalized to total protein content. (i) Activities of caspases in A-5RT3ANGPTL4 after 2 h suspension. Values (mean±S.D.) represent a fold change above A-5RT3CTRL (n=3). *:p<0.05, **:p<0.01.
Purifided fibrinogen-like fragment of ANGPTL4 (cANGPTL4) was immobilized onto ProteOn GLC chip by amine coupling as recommended by the manufacturer (Bio-Rad). Different concentrations of integrins were introduced into the GLC chip at a flow rate of 25 μl/min for […] with running buffer (50 mM Tris, pH8.0, 100 mMNaC1). […] The affinity constants of the 6 mAbs for ANGPTL4 were determined using the one shot Kinetics protocol as described by manufacturer (Bio-Rad).
Purified fibrinogen-like fragment of ANGPTL4 (cANGPTL4) was immobilized onto ProteOn GLC chip by amine coupling, as recommended by the manufacturer (Bio-Rad). […] The affinity constants of the 6 mAbs for ANGPTL4 were determined using the One-Shot Kinetics protocol as described by manufacturer (Bio-Rad).
For orientation: In SPR one partner is held on a chip, and binding of the other changes the refractive index at the surface.

The target of experiment [2] is T2, human integrin β5 (enriched membrane protein extract of transfected HEK293T cells) (human, UniProt P18084 24-799, limits assumed).
T2 construct: Membrane extract enriched on a sucrose step gradient before SPR; also called integrins B5; integrin 5
T2 sequence (P18084 24-799 limits assumed): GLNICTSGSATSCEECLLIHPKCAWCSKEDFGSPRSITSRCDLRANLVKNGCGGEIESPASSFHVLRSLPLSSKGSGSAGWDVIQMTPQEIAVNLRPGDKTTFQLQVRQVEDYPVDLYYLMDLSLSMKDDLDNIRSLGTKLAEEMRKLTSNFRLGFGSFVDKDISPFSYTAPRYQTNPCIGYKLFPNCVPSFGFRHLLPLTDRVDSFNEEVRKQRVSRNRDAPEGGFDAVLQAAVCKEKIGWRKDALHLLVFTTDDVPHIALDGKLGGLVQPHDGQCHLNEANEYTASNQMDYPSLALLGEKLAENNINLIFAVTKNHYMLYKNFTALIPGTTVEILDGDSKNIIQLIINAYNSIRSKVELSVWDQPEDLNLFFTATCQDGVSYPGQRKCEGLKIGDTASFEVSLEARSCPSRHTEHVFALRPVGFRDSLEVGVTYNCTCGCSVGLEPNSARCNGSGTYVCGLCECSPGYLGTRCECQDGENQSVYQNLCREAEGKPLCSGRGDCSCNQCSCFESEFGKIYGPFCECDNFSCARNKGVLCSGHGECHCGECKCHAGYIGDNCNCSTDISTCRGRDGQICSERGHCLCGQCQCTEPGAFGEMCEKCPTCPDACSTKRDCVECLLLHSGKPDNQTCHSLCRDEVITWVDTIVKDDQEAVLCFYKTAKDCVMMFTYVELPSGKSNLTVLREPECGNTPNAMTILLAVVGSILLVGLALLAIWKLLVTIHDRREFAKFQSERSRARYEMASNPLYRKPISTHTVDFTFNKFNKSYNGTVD
In words: SPR, integrin over immobilized ANGPTL4, global fit to Langmuir 1:1 model. As for the experimental part: Purifided fibrinogen-like fragment of ANGPTL4 (cANGPTL4) was immobilized onto ProteOn GLC chip by amine coupling as recommended by the manufacturer (Bio-Rad). Different concentrations of integrins were introduced into the GLC chip at a flow rate of 25 μl/min for […] with running buffer (50 mM Tris, pH8.0, 100 mMNaC1). […] Global fitting of the data to a Languir 1:1 model was used to determine the association (Kₒₙ) dissociation (Koff) and affinity constant (KD) using scrubber2 (Biologic Software Pty Ltd). […] The affinity constants of the 6 mAbs for ANGPTL4 were determined using the one shot Kinetics protocol as described by manufacturer (Bio-Rad).
Purified fibrinogen-like fragment of ANGPTL4 (cANGPTL4) was immobilized onto ProteOn GLC chip by amine coupling, as recommended by the manufacturer (Bio-Rad). Different concentrations of integrins were introduced into the GLC chip at a flow rate of 25 μl/min for […] with running buffer (50 mM Tris, pH 8.0, 100 mM NaCl). […] Global fitting of the data to a Langmuir 1:1 model was used to determine the association (kₒₙ), dissociation (koff) and affinity constant (KD) using Scrubber2 (BioLogic Software Pte Ltd). […] The affinity constants of the 6 mAbs for ANGPTL4 were determined using the One-Shot Kinetics protocol as described by manufacturer (Bio-Rad).

T1 sequence (P05556 21-798 limits assumed): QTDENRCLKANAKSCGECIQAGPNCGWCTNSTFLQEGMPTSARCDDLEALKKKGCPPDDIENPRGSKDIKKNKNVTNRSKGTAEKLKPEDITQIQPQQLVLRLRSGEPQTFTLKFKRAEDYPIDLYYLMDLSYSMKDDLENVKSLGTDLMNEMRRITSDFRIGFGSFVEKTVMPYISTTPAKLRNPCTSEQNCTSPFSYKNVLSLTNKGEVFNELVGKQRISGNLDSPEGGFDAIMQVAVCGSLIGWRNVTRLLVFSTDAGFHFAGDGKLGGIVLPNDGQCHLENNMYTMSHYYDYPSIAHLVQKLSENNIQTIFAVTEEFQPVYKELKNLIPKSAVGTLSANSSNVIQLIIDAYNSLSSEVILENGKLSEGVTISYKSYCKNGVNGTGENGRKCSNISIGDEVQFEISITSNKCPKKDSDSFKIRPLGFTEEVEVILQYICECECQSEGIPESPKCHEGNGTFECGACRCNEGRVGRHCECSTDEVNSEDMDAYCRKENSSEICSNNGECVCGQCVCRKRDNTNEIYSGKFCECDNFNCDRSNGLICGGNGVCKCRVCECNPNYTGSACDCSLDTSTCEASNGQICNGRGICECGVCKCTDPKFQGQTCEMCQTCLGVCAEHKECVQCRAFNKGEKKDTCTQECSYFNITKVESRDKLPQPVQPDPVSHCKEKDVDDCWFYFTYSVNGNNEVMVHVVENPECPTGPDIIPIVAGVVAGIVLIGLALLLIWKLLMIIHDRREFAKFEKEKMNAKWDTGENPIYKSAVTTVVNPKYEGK

B1: recombinant C-terminal fibrinogen-like fragment of human ANGPTL4 (cANGPTL4, a.a. 186-406) (ligand, UniProt Q9BY76 186-406, looked up)
chain: RDCQELFQVGERQSGLFEIQPQGSPPFLVNCKMTSDGGWTVIQRRHDGSVDFNRPWEAYKAGFGDPHGEFWLGLEKVHSITGDRNSRLAVQLRDWDGNAELLQFSVHLGGEDTAYSLQLTAPVAGQLGATTVPPSGLSVPFSTWDQDHDLRRDKNCAKSLSGGWWFGTCSHSNLNGQYFRSIPQQRQKLKKGIFWKTWRGRYYPLQATTMLIQPMAAEAAS
notes: range 186-406; also called immobilized-ANGPTL4; fibrinogen-like fragment of ANGPTL4; not shown: N-terminal histidine tag
As to B1, the Kd in experiment [1] and in experiment [2] was approximately 100 nM each time.
